{
  "source": "patent US20240272170A1",
  "about": "(QUANTUM SI, published 2024)",
  "binders": {"B1": {"name": "PS1220 (designed binder)", "single polypeptide, two PS1122 units in tandem": "MHSKFSHAGRICGAKFKVGEPIYRCKECSFDDTCVLCVNCFNPKDHLGHHVYTTICTEFNNGECDCGDKTAWNHTLFCKAEEGSAGSAAGSGEFMHSKFSHAGRICGAKFKVGEPIYRCKECSFDDTCVLCVNCFNPKDHLGHHVYTTICTEFNNGECDCGDKTAWNHTLFCKAEEG", "notes": "also called PS1220 (R); PS1220 (4-CY3B)"}, "B2": {"name": "PS557 (other)", "chain": "MPTAASATESAIEDTPAPARPEVDGRTKPKRQPRYHVVLWNDDDHTYQYVVVMLQSLFGHPPERGYRLAKEVDTQGRVIVLTTTREHAELKRDQIHAFGYDRLLARSKGSMKASIEAEE", "notes": "tag of the purified construct not specified; also called wild-type protein; WT"}, "B3": {"name": "PS829 (designed binder)", "chain": "B2 chain with N41D, P62R, V72M, Q75L", "notes": "Variant of PS557"}},
  "key": {"[1]": {"biological_target": "T1, QP1165 after cleavage to N-terminal arginine (RVWK)", "T1 peptide": "RVWK", "test": "on-chip dynamic sequencing of QP1165, PS1875 run, trace Aperture=340501"}, "[2]": {"biological_target": "T1, QP1165 after cleavage to N-terminal …", "test": "on-chip dynamic sequencing of QP1165, PS2132 run, trace Aperture=1826247"}, "[3]": {"biological_target": "T1, QP1165 after cleavage to N-terminal …", "test": "on-chip dynamic sequencing of QP1165, PS1875 run, trace Aperture=430641"}, "[4]": {"biological_target": "T1, QP1165 after cleavage to N-terminal …", "test": "on-chip dynamic sequencing of QP1165, 500 nM PS1875 plus five recognizers, 3369 alignments"}, "[5]": {"biological_target": "T1, QP1165 after cleavage to N-terminal …", "test": "on-chip dynamic sequencing of QP1165, PS2123 run, trace Aperture=1168773"}, "[6]": {"biological_target": "T1, QP1165 after cleavage to N-terminal …", "test": "on-chip dynamic sequencing of QP1165, 500 nM PS1875 plus five recognizers, 11565 alignments", "experimental": "(§1) The semiconductor chip was placed in the sequencing device and a chip check was performed to test electronic circuit function and to optimize laser coupling alignment. The chip was then removed from the device socket and the chip was washed twice with 50 μL of 70% isopropanol, followed by four washes with 30 μL of wash buffer (50 mM MOPS pH 8.0, 60 mM potassium acetate, 50 mM glucose, 20 mM magnesium acetate, and surfactant mix) through a flow cell attached to the chip. A second chip check was then performed. The laser was then blocked via an integrated software-controlled shutter, peptide complex was added to a final concentration of 1-10 nM and mixed thoroughly, and the chip was incubated for 15 min. The chip was then washed six times with wash buffer, followed by addition of an imaging solution (wash buffer with 5 mM Trolox and an oxygen scavenging system). The laser was unblocked and the occupancy percentage (target 10-30%, Poisson distributed) was recorded by acquiring a photobleaching signal from a fluorophore attached to the peptide complex during 5 min of laser illumination. […] Data was recorded for 15 min. The laser was then blocked briefly and aminopeptidases were added to the sequencing reaction via the flow cell and mixed thoroughly (final concentration 2-8 μM PhTET2 and/or 20-80 μM PhTET3, as indicated according to the experiment). The laser was then unblocked, and data was recorded for 10 hours. For all runs, 30 μL of mineral oil was added to fluid reservoirs at each port of the flow cell to prevent evaporation during the run."}, "[7]": {"biological_target": "T1, QP1165 after cleavage to N-terminal …", "test": "on-chip dynamic sequencing of QP1165, 500 nM PS1875 plus five recognizers, 7305 alignments"}, "[8]": {"biological_target": "T1, QP1165 after cleavage to N-terminal …", "test": "on-chip dynamic sequencing of QP1165, 500 nM PS2121 plus five recognizers, 15527 alignments"}, "[9]": {"biological_target": "T1, QP1165 after cleavage to N-terminal …", "test": "on-chip dynamic sequencing of QP1165, PS2132 run, trace Aperture=376215"}, "[10]": {"biological_target": "T1, QP1165 after cleavage to N-terminal …", "test": "on-chip dynamic sequencing of QP1165, PS1875 run, trace Aperture=1377116", "experimental": "as §1"}, "[11]": {"biological_target": "T1, QP1165 after cleavage to N-terminal …", "test": "on-chip dynamic sequencing of QP1165, PS2121 run, trace Aperture=1683362"}, "[12]": {"biological_target": "T1, QP1165 after cleavage to N-terminal …", "test": "on-chip dynamic sequencing of QP1165, PS2121 run, trace Aperture=740473"}, "[13]": {"biological_target": "T1, QP1165 after cleavage to N-terminal …", "test": "on-chip dynamic sequencing of QP1165, 500 nM PS2132 plus five recognizers, 36192 alignments"}, "[14]": {"biological_target": "T1, QP1165 after cleavage to N-terminal …", "test": "on-chip dynamic sequencing of QP1165, PS1875 run, trace Aperture=1353995"}, "[15]": {"biological_target": "T1, QP1165 after cleavage to N-terminal …", "test": "on-chip dynamic sequencing of QP1165, 500 nM PS2123 plus five recognizers, 62511 alignments"}, "[16]": {"biological_target": "T1, QP1165 after cleavage to N-terminal …", "test": "on-chip dynamic sequencing of QP1165, PS1875 run, trace Aperture=295010"}, "[17]": {"biological_target": "T2, labeled peptide X…-FITC with N-terminal valine (FITC on the C-terminal Lys)", "T2 construct": "also called VA peptide; valine peptide", "test": "fluorescence polarization; text of paragraph 337"}, "AA peptide [18]": {"biological_target": "T3, AA peptide", "T3 construct": "The peptide was coated on the Octet sensor; also called peptide with N-terminal alanine and penultimate alanine", "test": "BLI (Octet), peptide on sensor, purified protein in solution; second row for PS829", "from_the_text": "(§2) In the high-throughput assay, Octet sensors are coated with the peptide of interest and dipped in buffer containing the purified protein. An approximation of relative binding can be obtained by comparing the response after 200 seconds for each protein. Each protein has approximately the same molecular mass and is used at the same concentration, so ranking the proteins by response level in this assay gives an approximation of which proteins have improved binding. Studying the on and off-rate can also give insight into the mechanism of binding."}, "VA peptide [19]": {"biological_target": "T4, VA peptide", "T4 construct": "The peptide was coated on the Octet sensor; also called peptide with N-terminal valine and penultimate alanine", "test": "BLI (Octet), peptide on sensor, purified protein in solution; second row for PS829", "from_the_text": "as §2"}, "LA peptide [20]": {"biological_target": "T5, LA peptide", "T5 construct": "The peptide was coated on the Octet sensor; also called peptide with N-terminal leucine and penultimate alanine", "test": "BLI (Octet), peptide on sensor, purified protein in solution; second row for PS829", "from_the_text": "as §2"}, "AA peptide [21]": {"biological_target": "T3, AA peptide", "test": "BLI (Octet), peptide on sensor, purified protein in solution", "from_the_text": "as §2"}, "VA peptide [22]": {"biological_target": "T4, VA peptide", "test": "BLI (Octet), peptide on sensor, purified protein in solution", "from_the_text": "as §2"}, "LA peptide [23]": {"biological_target": "T5, LA peptide", "test": "BLI (Octet), peptide on sensor, purified protein in solution", "from_the_text": "as §2"}},
  "note": "Substitutions are numbered along the chain they refer to.",
  "data": [
    {"binder": "B1", "values": [
      {"measurement": "PD of a recognition segment in an example trace", "setting": "[1]", "result": 0.31, "unit": "s"},
      {"measurement": "PD of a recognition segment in an example trace", "setting": "[2]", "result": 0.27, "unit": "s"},
      {"measurement": "PD of a recognition segment in an example trace", "setting": "[3]", "result": 0.31, "unit": "s"},
      {"measurement": "IPD (interpulse duration)", "setting": "[4]", "result": 9.99, "unit": "s"},
      {"measurement": "PD (pulse duration)", "setting": "[4]", "result": 0.42, "unit": "s"},
      {"measurement": "PD of a recognition segment in an example trace", "setting": "[5]", "result": 0.3, "unit": "s"},
      {"measurement": "IPD (interpulse duration)", "setting": "[6]", "result": 10.6, "unit": "s"},
      {"measurement": "PD (pulse duration)", "setting": "[6]", "result": 0.37, "unit": "s"},
      {"measurement": "IPD (interpulse duration)", "setting": "[7]", "result": 10.5, "unit": "s"},
      {"measurement": "PD (pulse duration)", "setting": "[7]", "result": 0.43, "unit": "s"},
      {"measurement": "IPD (interpulse duration)", "setting": "[8]", "result": 11.9, "unit": "s"},
      {"measurement": "PD (pulse duration)", "setting": "[8]", "result": 0.46, "unit": "s"},
      {"measurement": "PD of a recognition segment in an example trace", "setting": "[9]", "result": 0.94, "unit": "s"},
      {"measurement": "PD of a recognition segment in an example trace", "setting": "[10]", "result": 0.4, "unit": "s"},
      {"measurement": "PD of a recognition segment in an example trace", "setting": "[11]", "result": 0.45, "unit": "s"},
      {"measurement": "PD of a recognition segment in an example trace", "setting": "[12]", "result": 0.71, "unit": "s"},
      {"measurement": "IPD (interpulse duration)", "setting": "[13]", "result": 11.1, "unit": "s"},
      {"measurement": "PD (pulse duration)", "setting": "[13]", "result": 0.44, "unit": "s"},
      {"measurement": "PD of a recognition segment in an example trace", "setting": "[14]", "result": 0.34, "unit": "s"},
      {"measurement": "IPD (interpulse duration)", "setting": "[15]", "result": 9.74, "unit": "s"},
      {"measurement": "PD (pulse duration)", "setting": "[15]", "result": 0.4, "unit": "s"},
      {"measurement": "PD of a recognition segment in an example trace", "setting": "[16]", "result": 0.3, "unit": "s"}
    ]},
    {"binder": "B2", "values": [
      {"measurement": "Kd", "setting": "[17]", "result": 1170, "unit": "nM"}
    ]},
    {"binder": "B3", "values": [
      {"measurement": "Octet response after 200 sec association", "setting": "AA peptide [18]", "result": 4.5, "unit": "nm"},
      {"measurement": "Octet response after 200 sec association", "setting": "VA peptide [19]", "result": 11.3, "unit": "nm"},
      {"measurement": "Octet response after 200 sec association", "setting": "LA peptide [20]", "result": 10.9, "unit": "nm"},
      {"measurement": "Octet response after 200 sec association", "setting": "AA peptide [21]", "result": 2.5, "unit": "nm"},
      {"measurement": "Octet response after 200 sec association", "setting": "VA peptide [22]", "result": 9.5, "unit": "nm"},
      {"measurement": "Octet response after 200 sec association", "setting": "LA peptide [23]", "result": 8.5, "unit": "nm"}
    ]}
  ]
}
